The chains are these.
B1: human peptidyl-prolyl cis-trans isomerase B (PPIB), flag-tagged (enzyme)
chain: not shown
B2: human prolyl 3-hydroxylase 1 (P3H1) (enzyme, UniProt Q32P28-1 23-736, looked up)
chain: EVESEAGWGMVTPDLLFAEGTAAYARGDWPGVVLSMERALRSRAALRALRLRCRTQCAADFPWELDPDWSPSPAQASGAAALRDLSFFGGLLRRAACLRRCLGPPAAHSLSEEMELEFRKRSPYNYLQVAYFKINKLEKAVAAAHTFFVGNPEHMEMQQNLDYYQTMSGVKEADFKDLETQPHMQEFRLGVRLYSEEQPQEAVPHLEAALQEYFVAYEECRALCEGPYDYDGYNYLEYNADLFQAITDHYIQVLNCKQNCVTELASHPSREKPFEDFLPSHYNYLQFAYYNIGNYTQAVECAKTYLLFFPNDEVMNQNLAYYAAMLGEEHTRSIGPRESAKEYRQRSLLEKELLFFAYDVFGIPFVDPDSWTPEEVIPKRLQEKQKSERETAVRISQEIGNLMKEIETLVEEKTKESLDVSRLTREGGPLLYEGISLTMNSKLLNGSQRVVMDGVISDHECQELQRLTNVAATSGDGYRGQTSPHTPNEKFYGVTVFKALKLGQEGKVPLQSAHLYYNVTEKVRRIMESYFRLDTPLYFSYSHLVCRTAIEEVQAERKDDSHPVHVDNCILNAETLVCVKEPPAYTFRDYSAILYLNGDFDGGNFYFTELDAKTVTAEVQPQCGRAVGFSSGTENPHGVKAVTRGQRCAIALWFTLDPRHSERDRVQADDLVKMLFSPEEMDLSQEQPLDAQQGPPEPAQESLSGSESKPKDEL
B3: PCP complex with mutation W675L of P3H1 (complex)
chain 1: B2 chain with W653L
chain 2: QYERYSFRSFPRDELMPLESAYRHALDKYSGEHWAESVGYLEISLRLHRLLRDSEAFCHRNCSAAPQPEPAAGLASYPELRLFGGLLRRAHCLKRCKQGLPAFRQSQPSREVLADFQRREPYKFLQFAYFKANNLPKAIAAAHTFLLKHPDDEMMKRNMAYYKSLPGAEDYIKDLETKSYESLFIRAVRAYNGENWRTSITDMELALPDFFKAFYECLAACEGSREIKDFKDFYLSIADHYVEVLECKIQCEENLTPVIGGYPVEKFVATMYHYLQFAYYKLNDLKNAAPCAVSYLLFDQNDKVMQQNLVYYQYHRDTWGLSDEHFQPRPEAVQFFNVTTLQKELYDFAKENIMDDDEGEVVEYVDDLLELEETS
chain 3: not shown
B4: human cartilage-associated protein (CRTAP), strep-tagged (natural protein, UniProt O75718 27-401, looked up)
chain: B3 chain 2

Data set [1] addresses B4. Briefly: cryo-EM structure.
For data set [2], the target named is B2. Briefly: cryo-EM structure.
The data set “SEC” deals with the molecule itself. Put plainly: SEC.

The stoichiometry N is the number of molecules, sites or subunits per partner or assembly.

Residue numbers refer to the chain shown, from its start. Names may count otherwise.

B1: the “stoichiometry N” value in data set [1] and in data set [2] was 1 each time.
Consider B2, for which, in data set [1], the “stoichiometry N” value amounted to 1.
On to B3, for which the binding result in “SEC” is on record as “binds”.
B4: the binding result in data set [2] was “binds”.

The record behind these values is publication PMC11381544 (Nature Communications, 2024).
